B1: Coatomer subunit alpha (Saccharomyces cerevisiae), P53622 (parent)
chain: MKMLTKFESKSTRAKGIAFHPSRPWVLVALFSSTIQLWDYRMGTLLHRFEDHEGPVRGLDFHPTQPIFVSAGDDYTIKVWSLDTNKCLYTLTGHLDYVRTVFFHRELPWIISASDDQTIRIWNWQNRKEIACLTGHNHFVMCAQFHPTDDLIVSASLDETIRIWDISGLRKRHSAPGTSSFEEQMSAQQNLLDGSLGDCVVKFILEGHTRGVNWASFHPTLPLIVSGSDDRQVKLWRMSATKAWEVDTCRGHTNNVDSVIFHPHQNLIISVGEDKTLRVWDLDKRTPVKQFKRENDRFWLIAAHPHINLFGAAHDSGIMVFKLDRERPCSFIHQNQLFFVNAEKQIQSFNFQKRVASLPYASLKGIGQPWDAFRSISYNPSQHSVLVNEANGKFALVILPKQPVGAVEPTSVTQDTGNFATFVGRNRFVVYNKNTESVEVRSLENKVTRNIKVEETVRTIVAAGPGSVLVIHPREVILYDVQQGKKVSQLAVKNVKYVSWSLDGQYVALMSKHTITLATKKLELINSMHETIRIKSAAWDETGVLIYSTLNHIRYSLLNGDRGIIKTLEKTLYITKVQGKLVYCLNREGEIEILTIDPTEYRFKKALVNKNFPEVLRLIKDSNLVGQNIISYLQKSGYPEIALQFVQDPHIRFDLALEYGNLDVALDEAKKLNDSSTWERLIQEALAQGNASLAEMIYQTQHSFDKLSFLYLVTGDVNKLSKMQNIAQTREDFGSMLLNTFYNNSTKERSSIFAEGGSLPLAYAVAKANGDEAAASAFLEQAEVDEQDVTLPDQMDASNFVQRPVISKPLEKWPLKEAELSYFEKAVLGQIDDLTIDDETPAVNTTQEQEEPLGEENFNDEDIGEDEGAWDLGDEDLDVGEELPEEVEQGEITSPAQEVETAIWIKNSKLPAVLVAAGAFDAAVQALSKQVGVVKLEPLKKYFTNIYEGCRTYIPSTPCELPAQLGYVRAYDDTVSEDQILPYVPGLDVVNEKMNEGYKNFKLNKPDIAIECFREAIYRITLLMVDDAEDEKLAHKILETAREYILGLSIELERRSLKEGNTVRMLELAAYFTKAKLSPIHRTNALQVAMSQHFKHKNFLQASYFAGEFLKIISSGPRAEQARKIKNKADSMASDAIPIDFDPYAKFDICAATYKPIYEDTPSVSDPLTGSKYVITEKDKIDRIAMISKIGAPASGLRIRV
partner: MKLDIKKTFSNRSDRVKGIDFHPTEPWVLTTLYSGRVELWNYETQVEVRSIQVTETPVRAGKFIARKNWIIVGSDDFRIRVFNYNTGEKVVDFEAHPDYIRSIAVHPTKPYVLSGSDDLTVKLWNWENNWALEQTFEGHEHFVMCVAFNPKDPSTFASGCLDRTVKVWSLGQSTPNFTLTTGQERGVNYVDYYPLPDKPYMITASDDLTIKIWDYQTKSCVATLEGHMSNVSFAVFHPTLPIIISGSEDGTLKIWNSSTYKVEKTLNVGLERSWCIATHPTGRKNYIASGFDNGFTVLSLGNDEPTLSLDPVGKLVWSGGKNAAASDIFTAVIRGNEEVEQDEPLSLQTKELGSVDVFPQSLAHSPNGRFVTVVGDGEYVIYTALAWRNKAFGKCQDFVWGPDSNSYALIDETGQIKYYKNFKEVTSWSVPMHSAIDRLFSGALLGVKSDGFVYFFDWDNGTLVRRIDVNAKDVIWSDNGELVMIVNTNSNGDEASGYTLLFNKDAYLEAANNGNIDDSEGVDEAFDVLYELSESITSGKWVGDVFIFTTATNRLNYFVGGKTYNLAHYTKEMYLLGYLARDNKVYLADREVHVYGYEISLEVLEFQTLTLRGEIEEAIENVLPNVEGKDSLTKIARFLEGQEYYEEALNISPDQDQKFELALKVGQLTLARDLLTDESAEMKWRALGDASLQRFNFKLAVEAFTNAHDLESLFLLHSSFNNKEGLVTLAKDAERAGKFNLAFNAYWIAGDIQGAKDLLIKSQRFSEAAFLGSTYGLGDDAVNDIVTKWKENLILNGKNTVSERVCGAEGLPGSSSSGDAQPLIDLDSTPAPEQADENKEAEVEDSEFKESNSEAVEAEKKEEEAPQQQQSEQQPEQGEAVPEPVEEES

Variants of: B1
Settings: with copb2_yeast SEC27, P41811

effect of a mutation on the interaction	Variant
decreasing interaction	S1188F

Reference: IntAct's records for PubMed 10921873
